Measurements from PMC5120336, “The N-terminal loop of IRAK-4 death domain regulates ordered assembly of the Myddosome signalling scaffold” (Scientific Reports, 2016).

How the values were obtained:
[1] = molecular target: T1, MyD88 (LUMIER construct) (human, UniProt Q99836 1-296); test: LUMIER; affinity purification of Protein A tagged proteins on magnetic IgG beads (Dynabeads M-280, sheep anti-rabbit IgG); co-purified protein detected by Renilla luciferase activity; settings: partners not purified
T1 construct: MyD88, human

[2] = molecular target: the molecule itself; test: SEC; Myddosome assembly assay: death domains alone or mixed 1:1, concentrated to 0.5 mg.ml^-1, calibrated TSKgel SuperSW3000 analytical size exclusion column, 0.3 ml.min^-1, peaks analysed by reducing SDS-PAGE

Binder	fold binding against wild-type IRAK-4 [1]	stoichiometry N [2]
IRAK-4 kinase dead mutant (KK213AA) (LUMIER construct) (natural protein, human, UniProt Q9NWZ3 1-460, looked up, IRAK-4, human; also called kinase dead IRAK-4; KD) MNKPITPSTYVRCLNVGLIRKLSDFIDPQEGWKKLAVAIKKPSGDDRYNQFHIRRFEALLQTGKSPTSELLFDWGTTNCTVGDLVDLLIQNEFFAPASLLLPDAVPKTANTLPSKEAITVQQKQMPFCDKDRTLMTPVQNLEQSYMPPDSSSPENKSLEVSDTRFHSFSFYELKNVTNNFDERPISVGGNKMGEGGFGVVYKGYVNNTTVAVAALAAMVDITTEELKQQFDQEIKVMAKCQHENLVELLGFSSDGDDLCLVYVYMPNGSLLDRLSCLDGTPPLSWHMRCKIAQGAANGINFLHENHHIHRDIKSANILLDEAFTAKISDFGLARASEKFAQTVMTSRIVGTTAYMAPEALRGEITPKSDIYSFGVVLLEIITGLPAVDEHREPQLLLDIKEEIEDEEKTIEDYIDKKMNDADSTSVEAMYSVASQCLHEKKNKRPDIKKVQQLLQEMTAS	~5 fold	–
MyD88 containing the death domain and intermediate domain (aa 1 to 158) (domain or fragment, human, UniProt Q99836 1-158, looked up, MyD88, human, death domain and intermediate domain, aa 1 to 158; Alone it elutes as a dimer (35 kDa) on size exclusion; also called MyD88 DD; MyD88 death domain; source: E. coli BL21 Star (DE3), purified (GSTrap with on-column Tev cleavage, HisTrap, Superdex 75); not shown: 6xHis-GST, N-terminal, cleaved) MAAGGPGAGSAAPVSSTSSLPLAALNMRVRRRLSLFLNVRTQVAADWTALAEEMDFEYLEIRQLETQADPTGRLLDAWQGRPGASVGRLLELLTKLGRDDVLLELGPSIEEDCQKYILKQQQEEAEKPLQVAAVDSSVPRTAELAGITTLDDPLGHMP	–	2
